From US20210292423A1 come the findings set out here.

Numbering of substitutions follows the chain as printed.

Experiment [1] has as its target human CD123 (IL3RA) on cells (human) (UniProt P26951). Briefly: cell-based or functional assay.
Experiment [2] shares this target. Briefly: flow cytometry, TF-1 cells, 3 µg antibody. (A flow cytometer gives signals particle by particle.)
The target is the same in experiment [3]. Briefly: flow cytometry, THP-1 cells, 3 µg antibody.
Experiment [4] has as its target Macaca fascicularis CD3ε/δ-Fc fusion protein (Macaca fascicularis) (UniProt Q95LI8). Briefly: SPR Biacore, Fab. (Surface plasmon resonance follows binding to a sensor surface in real time, without labels.)
For experiment [5] the target is unchanged. Briefly: SPR single point, hybridoma supernatant.
Experiment [6] has the same target. Briefly: SPR Biacore, ratio against human CD3εδ.

Sequence of human CD123 (IL3RA) on cells (human) (P26951 19-378): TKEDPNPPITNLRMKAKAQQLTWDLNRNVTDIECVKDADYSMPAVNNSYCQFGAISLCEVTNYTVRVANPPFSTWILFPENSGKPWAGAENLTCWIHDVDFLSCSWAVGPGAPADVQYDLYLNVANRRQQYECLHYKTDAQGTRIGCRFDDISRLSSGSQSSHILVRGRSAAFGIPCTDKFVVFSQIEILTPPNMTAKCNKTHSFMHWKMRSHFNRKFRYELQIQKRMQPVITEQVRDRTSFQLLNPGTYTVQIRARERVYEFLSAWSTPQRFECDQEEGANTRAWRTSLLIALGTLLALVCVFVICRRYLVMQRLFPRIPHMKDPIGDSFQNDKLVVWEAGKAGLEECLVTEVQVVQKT
Sequence of Macaca fascicularis CD3ε/δ-Fc fusion protein (Macaca fascicularis) (chain, as listed by the source mutant, chain 1 of 2): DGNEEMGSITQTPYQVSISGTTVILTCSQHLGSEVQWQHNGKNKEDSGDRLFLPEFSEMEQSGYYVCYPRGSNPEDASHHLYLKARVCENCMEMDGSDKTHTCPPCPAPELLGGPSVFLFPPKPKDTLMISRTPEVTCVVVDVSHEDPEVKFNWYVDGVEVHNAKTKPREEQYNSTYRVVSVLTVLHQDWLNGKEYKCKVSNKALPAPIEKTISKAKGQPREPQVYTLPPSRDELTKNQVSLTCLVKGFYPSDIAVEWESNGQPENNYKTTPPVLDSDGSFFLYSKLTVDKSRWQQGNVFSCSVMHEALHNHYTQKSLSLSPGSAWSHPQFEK
Sequence of Macaca fascicularis CD3ε/δ-Fc fusion protein (Macaca fascicularis) (Q95LI8 22-105, stated change not applied, chain 2 of 2): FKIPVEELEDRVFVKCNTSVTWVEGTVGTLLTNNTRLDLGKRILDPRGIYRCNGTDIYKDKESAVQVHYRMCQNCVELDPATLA

B1: CODV-Fab BFX-2B8-F3 × CD3 (bispecific antibody, part only; not given: CD3 arm, linkers, constant domains, part only)
light, part: EIVLTQSPTSMTASPGEQVTITCRASSSINYMHWYQQKPGASPRPWIYETSKLASGVPDRFSGSASGTSYSLTINNMEAEDAATYYCQQWNYPSWTFGGGTKLELK
heavy, part: EVQLVESGGGLVQPGRSLKLSCAASGFTFSDYNMAWVRQAPKKGLEWVATILYDGGRTYYRGSVKGRFTISRDNAKSTLYLRMDSLRSEDTATYYCATHSRGTDYFDYWGQGVMVTVSS
In turn, B1 gave an EC50 [ng/ml] geomean, cytotoxic assay on THP-1 in experiment [1] of 107 ng/mL.

B2: CODV-Fab BFX-2F8-D6 × CD3 (bispecific antibody, part only; not given: anti-CD3 arm, linkers, constant domains, V domains shown, not shown: another chain or arm of the molecule; a dimerising Fc or GST; small tags and cut ends)
VH: QVQLKESGPGLVQPSQTLSLTCTVSGFSLTSYGVSWVRQPPGKGLEWIATISSAGSTYYDLVLKSRLSITRDTSKSQVFLKVHSLQTEDTAIYLCARDAPVFNYGSYNAMDSWGQGTSVTVSS
VL: DIQMTQSPSFLSATVGDRVTINCKASQNINKYLNWYQQKLGEAPKRLIYNTNSLQTGIPSRFSGSGSGTDYTLTISSLQPEDVATYFCLQHKSGLTFGSGTKLEIK
In the case of B2, the results for the % FITC positive Cells in experiment [2] and in experiment [3] were 9.3% and 24%, respectively.

B3: CODV-Fab BFX-9F6-G3 × CD3 (bispecific antibody, part only; not given: anti-CD3 arm, linkers, constant domains, V domains shown, not shown: another chain or arm of the molecule; a dimerising Fc or GST; small tags and cut ends)
VL: DIQMTQSPASLSASLGETVTIECRPSEDIHSNVAWYQQKPGNSPQLLIYDASNLADGVPSRFSGSGSGTQYSLKINSLQSEDVASYFCHQYNIYPYTFGSGTKLELK
VH: QVQLQESGPTLVKPGDSVKMSCKASGYTFTDYIIHWVKQSHGKSLEWIGYINPYSDGTNYNEKFKSKATLTVDKSTSTAYMEFSRLTSEDSAIYFCALNYGSYYAMDAWGQGTSVTVSS
B3: the % FITC positive Cells in experiment [2] was 60.7%; in experiment [3], 99.7%. The EC50 [ng/ml] geomean, cytotoxic assay on THP-1 in experiment [1] was 13.9 ng/mL.

B4: humanized 4B4 Fab 4B4_11 (VL1_CM3, VH6_BM2) (Fab, V domains shown)
VH: QVQLVESGGRVVQPGRSLRLTCAASGFTFSNAWMHWVRQAPGKQLEWVAQIKARSNNYATYYAESVKGRFTISRDDSKSTIYLQMNSLRAEDTAVYYCRGTYYASKPFDYWGQGTTVTVSS
VL: DVVMTQSPLSLSVTLGQPVSISCRSSQSLVHDNANTYLSWSLQRPGQSPRVLIYKVSNRFSGVPDRFSGSGSGTDFTLKISRVEAEDVGVYYCGQGTQYPFTFGSGTKLEIK
Usually Kd stands for the equilibrium constant for the complex coming apart. The low end stands for higher affinity, the high end for lower affinity. The koff is the rate constant with which the complex falls apart. Broadly, the kon is a measure of how fast the partners come together. For the molecule B4, in experiment [4], the Kd was found to be 20.4 nM, the koff came to 0.00486 s⁻¹ and the kon stood at 238000 M⁻¹ s⁻¹.

B5: 5B1-G2 anti-CD3 antibody (hybridoma supernatant) (antibody, V domains shown)
VH: EVQVVETGGSLVQPGKSLKLTCATSGFSFSNAWMHWVRQSPEKQLEWVAQIKDKANNYATYYAESVKGRFTISRDDSKGSIYLQMNSLKEEDTAVYYCRGLYYGLFPSDYWGQGVMVTVSS
VL: DVVMTQTPVSLSVSLGGQVSISCRSSQSLVHNNGNTYLSWYLLKPGQSPQLLIYKVSNRFSGISDRFSGGGSGTDFTLKISRLEPDDLGIYYCGQGTQYPFTFGSGTKLEIK
With B5, the RU at 25 nM in experiment [5] worked out at 0.5 RU.

B6: 5B1-G2 Fab (Fab, V domains shown)
VH: B5 VH
VL: B5 VL
As for B6, the Ratio KD(cy)/KD(hu) in experiment [6] was determined as 1.

B7: CODV-Fab BFX-9B8-G6 × CD3 (bispecific antibody, part only; not given: anti-CD3 arm, linkers, constant domains, V domains shown, not shown: another chain or arm of the molecule; a dimerising Fc or GST; small tags and cut ends)
VL: DIVMTQSPSSLAVSAGETVTINCKSSQSFLSSGDERNYVAWYQHKPGQSPKLLIYWASTRHSGVPDRFIGSGSGTDFTLTISSVQAEDLAIYYCQQYYDTPLTFGSGTKLEIK
VH: EVKLQESGPSLVQSSQTLSLTCTVSGFSLTSYHIHWVRQPPGKGLEWMGVMWSDGDTSYSSALKSRLSISRDTSQSQVFLKMNSLQTEDTATYYCARGDYSSYIYLWFAYWGQGTLVTVSS
For the molecule B7, the % FITC positive Cells amounted to 31.1% in experiment [2] and 48.8% in experiment [3]. This molecule displayed an EC50 [ng/ml] geomean, cytotoxic assay on THP-1 in experiment [1] of 106 ng/mL.

B8: CODV-Fab BFX-9D7-C8 × CD3 (bispecific antibody, part only; not given: anti-CD3 arm, linkers, constant domains, V domains shown, not shown: another chain or arm of the molecule; a dimerising Fc or GST; small tags and cut ends)
VL: B7 VL with A15E, E35G, R36K, H44Y, H61Q, S83T
VH: B7 VH with P40T, S60N, D99Y, I104L
As for B8, the values for the % FITC positive Cells in experiment [2] and in experiment [3] were 50.2% and 88.7%, respectively. In experiment [1], this molecule showed an EC50 [ng/ml] geomean, cytotoxic assay on THP-1 of 86.3 ng/mL.

B9: CODV-Fab BFX-3E3-D3 × CD3 (bispecific antibody, part only; not given: CD3 arm, linkers, constant domains, part only)
light, part: QFVLTQPNSVSTNLGSTVKLSCKRNTGNIGSNYVNWYQQHEGRSPTTMIYRDDKRPDGVPDRFSGSIDRSSNSALLTINNVQTEDEADYFCQSYSSGINIIFGGGTKLTVL
heavy, part: QVQLQESGPGLVQPSQTLSLTCTVSGFSLTTYDVHWVRQPPGKGLEWMGRIQNGGITDYNSALKSRLIISRDTSKSQVFLKMNSVQTEDTAMYFCAKTGSYFYAFDHWGQGTLVTVSS
Take B9: the % FITC positive Cells was determined as 31.6% in experiment [2] and 99% in experiment [3]. The same molecule showed an EC50 [ng/ml] geomean, cytotoxic assay on THP-1 in experiment [1] of 12.2 ng/mL.

B10: CODV-Fab 7G3 × OKT3 (bispecific antibody, part only; not given: OKT3 arm, linkers, constant domains, part only)
light, part: DFVMTQSPSSLTVTAGEKVTMSCKSSQSLLNSGNQKNYLTWYLQKPGQPPKLLIYWASTRESGVPDRFTGSGSGTDFTLTISSVQAEDLAVYYCQNDYSYPYTFGGGTKLEIK
heavy, part: EVQLQQSGPELVKPGASVKMSCKASGYTFTDYYMKWVKQSHGKSLEWIGDIIPSNGATFYNQKFKGKATLTVDRSSSTAYMHLNSLTSEDSAVYYCTRSHLLRASWFAYWGQGTLVTVSA
B10: in experiment [1], the Activity EC50 [ng/ml], cytotoxic assay on THP-1 with human T cells amounted to 16 ng/mL.

B11: CODV-Fab BFX-3B10-E6 × CD3 (bispecific antibody, part only; not given: CD3 arm, linkers, constant domains, part only)
light, part: DVLMTQTPVSLPVSLGGQVSISCRSSQSLVHSDGDTYLHWYLQKPGQSPQLLIYRVSNRFSGVPDRFSGSGSGTDFTLKISRVEPEDLGLYYCLQTTHFPPWTFGGGTKLEMK
heavy, part: QVQLQQSGPELRRPGSSVRLSCKASGYRIKDFLIHWIKNRPEHGLEWIGWIDPEDGETKYAQKFQTKATLTADTSSNTAYMQLSSLTSEDTATYFCARWGDVYYGLMRGHVMDAWGQGTSVTVSS
In experiment [1], B11 gave an EC50 [ng/ml] geomean, cytotoxic assay on THP-1 of 429 ng/mL.

B12: CODV-Fab BFX-6B10-E4 × CD3 (bispecific antibody, part only; not given: CD3 arm, linkers, constant domains, part only)
light, part: NIVMTQSPKSMSISVGDRVTMNCKASQTVGNNIAWYQQKPGLSPQLLIDYASNRYTGVPNRFTGGGYGTDFILTINSVQAEDAAFYYCQRMYNSPTFGGGTKLELK
heavy, part: EVQLVESGGGLVQPGRSLKLSCAASGFTFSHYNMAWVRQAPKKGLEWVATITYDDHSTYYRDSVKGRFTISRDTAKSTLYLQMDSLRSEDTATYYCARLVNYAFAYWGQGTLVTVSS
In turn, B12 yielded an EC50 [ng/ml] geomean, cytotoxic assay on THP-1 in experiment [1] of 39.7 ng/mL.

B13: 12D2-E5 Fab (Fab, V domains shown)
VH: EVKLVESGGGLVQPGRSLRLSCAASGFNFYAYWMGWVRQAPGKGLEWIGEIKKDGTTINYTPSLKDRFTISRDNAQNTLYLQMTKLGSEDTALYYCAREERDGYFDYWGQGVMVTVSS
VL: QFVLTQPNSVSTNLGSTVKLSCKRSTGNIGSNYVNWYQQHEGRSPTTMIYRDDKRPDGVPDRFSGSIDRSSNSALLTINNVQTEDEADYFCQSYSSGIVFGGGTKLTVL
Consider B13, for which, in experiment [6], the Ratio KD(cy)/KD(hu) came to 4.

B14: 12D2-E5 anti-CD3 antibody (hybridoma supernatant) (antibody, V domains shown)
VH: B13 VH
VL: B13 VL
In the case of B14, the RU at 25 nM in experiment [5] turned out to be 5 RU.
